According to patent US20070293659A1:

Molecular target: Human interleukin-2 (IL-2) (human) (UniProt P60568)
Experiment: SPR (BIAcore 3000), data not shown

oriented (Or) Fab'602: Fab' fragment of MAB602 biotinylated in the hinge region
Kd: 0.1 nM
